Laboratory results taken from article doi:10.1101/2020.06.12.149252.
pKd: −log10 of the molar value.

Target: taxol-stabilized microtubules (porcine brain tubulin) (porcine) (UniProt P02550)
Experiment: TIRF microscopy

UniProt P02550, sequence (P02550 whole entry): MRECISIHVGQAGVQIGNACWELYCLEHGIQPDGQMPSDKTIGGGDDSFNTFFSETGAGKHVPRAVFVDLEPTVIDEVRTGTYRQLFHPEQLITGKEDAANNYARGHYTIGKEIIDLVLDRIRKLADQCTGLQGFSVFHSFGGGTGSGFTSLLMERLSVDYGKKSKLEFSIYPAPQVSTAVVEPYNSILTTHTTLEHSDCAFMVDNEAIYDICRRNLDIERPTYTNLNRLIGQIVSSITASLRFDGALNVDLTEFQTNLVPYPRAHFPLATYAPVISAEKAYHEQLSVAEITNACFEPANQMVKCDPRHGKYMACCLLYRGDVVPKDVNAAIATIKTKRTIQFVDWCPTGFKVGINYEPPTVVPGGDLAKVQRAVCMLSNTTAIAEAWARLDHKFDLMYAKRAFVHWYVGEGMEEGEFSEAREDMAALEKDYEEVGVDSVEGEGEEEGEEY

Row | pKd | microtubule-bound fluorescence intensity at 3 nM | microtubule-bound fluorescence intensity at 12 nM | microtubule-bound fluorescence intensity at 48 nM | Substance | microtubule-bound fluorescence intensity at 25 nM
1 | 8.62 | – | – | – | sfGFP-DCLK1-T687A co-expressed with lambda phosphatase, without ATP (from UniProt O15075 1-740) (natural protein) | –
2 | 8.41 | 6790 | 9840 | 14800 | sfGFP-DCLK1-ΔC (aa 1-648) co-expressed with lambda phosphatase, without ATP (from UniProt O15075 1-648) (domain or fragment) | –
3 | 8.03 | – | – | – | sfGFP-DCLK1-T687/688A co-expressed with lambda phosphatase, without ATP (from UniProt O15075 1-740) (natural protein) | –

More lines, now with the values behind:

Row | Substance | pKd | microtubule-bound fluorescence intensity at 3 nM | microtubule-bound fluorescence intensity at 12 nM | microtubule-bound fluorescence intensity at 48 nM | microtubule-bound fluorescence intensity at 25 nM
4 | sfGFP-DCLK1-T688A co-expressed with lambda phosphatase, without ATP (from UniProt O15075 1-740) (natural protein) | 8.62 | – | – | – | –
5 | sfGFP-DCLK1-ΔC (aa 1-648) treated with lambda phosphatase after purification (from UniProt O15075 1-648) (domain or fragment) | – | 11800 | – | – | 21600
6 | sfGFP-DCLK1-WT, expressed in bacteria under standard conditions (from UniProt O15075 1-740) (natural protein) | – | 2560 | – | – | 16500
7 | sfGFP-DCLK1-ΔC4A co-expressed with lambda phosphatase, without ATP (from UniProt O15075 1-648) (domain or fragment) | – | 745 | 2550 | 4530 | –
8 | sfGFP-DCLK1-D511N (kinase dead), expressed in bacteria under standard conditions (from UniProt O15075 1-740) (natural protein) | – | 7140 | – | – | 19600
9 | sfGFP-DCLK1-WT treated with lambda phosphatase after purification (from UniProt O15075 1-740) (natural protein) | – | 15900 | – | – | 18200
10 | sfGFP-DCLK1-WT co-expressed with lambda phosphatase, without ATP (from UniProt O15075 1-740) (natural protein) | 8.54 | 14900 | 20600 | 15900 | –
